Data reported in publication doi:10.1101/2024.08.05.606605v1.

system: O=[N+]([O-])c1ccc(O[C@@H]2O[C@H](CO)[C@@H](O)[C@H](O)[C@H]2O)cc1; experiment: purified protein; details: 50 mM sodium acetate pH 5.5, 55 °C

Substance	Km	kcat
WT-AtGH1 (Acetivibrio thermocellus ATCC 27405; G168W/S242L)	1320 ± 110 µM	12.38 s⁻¹
WT-AtGH1 (Acetivibrio thermocellus ATCC 27405; S242L)	1790 ± 110 µM	7.0875 s⁻¹
WT-AtGH1 (Acetivibrio thermocellus ATCC 27405)	2420 ± 170 µM	10.08 s⁻¹
WT-AtGH1 (Acetivibrio thermocellus ATCC 27405; S242W)	2100 ± 100 µM	27.115 s⁻¹
WT-AtGH1 (Acetivibrio thermocellus ATCC 27405; G168W)	2230 ± 130 µM	9.1175 s⁻¹
